# Assay results taken from paper PMC5834165, “Crystal structures of PCNA mutant proteins defective in gene silencing suggest a novel interaction site on the front face of the PCNA ring” (PLoS ONE, 2018).
# Numbering of substitutions follows the chain as printed. Numbers in names are those of the source.
# B1: D41A/D42A mutant PCNA protein from Saccharomyces cerevisiae (natural protein)
# chain: MLEAKFEEASLFKRIIDGFKDCVQLVNFQCKEDGIIAQAVAASRVLLVSLEIGVEAFQEYRCDHPVTLGMDLTSLSKILRCGNNTDTLTLIADNTPDSIILLFEDTKKDRIAEYSLKLMDIDADFLKIEELQYDSTLSLPSSEFSKIVRDLSQLSDSINIMITKETIKFVADGDIGSGSVIIKPFVDMEHPETSIKLEMDQPVDLTFGAKYLLDIIKGSSLSDRVGIRLSSEAPALFQFDLKSGFLQFFLAPKFNDEE
# notes: PCNA, Saccharomyces cerevisiae, with D41A and D42A; also called D41A/D42A PCNA; encoded by the pol30-6 allele; source: E. coli, overexpressed, purified as described previously [35]
# B2: R61A/D63A mutant PCNA protein from Saccharomyces cerevisiae (natural protein)
# chain: B1 chain with A41D, A42D, R61A, D63A
# notes: PCNA, Saccharomyces cerevisiae, with R61A and D63A; also called R61A/D63A PCNA; encoded by the pol30-8 allele; source: E. coli, overexpressed, purified as described previously [35]
# B3: L126A/I128A mutant PCNA protein from Saccharomyces cerevisiae (natural protein)
# chain: B1 chain with A41D, A42D, L126A, I128A
# notes: PCNA, Saccharomyces cerevisiae, with L126A and I128A; also called L126A/I128A PCNA; encoded by the pol30-79 allele; source: E. coli, overexpressed, purified as described previously [35]
# Molecular target: the molecule itself
# Test: native gel or EMSA; proteins at 0.1, 0.5, 1.0 mg/ml in 10 mM Tris-Cl pH 7.6, 150 mM NaCl, 2.5% Ficoll-400, 10 mM EDTA, 5 min; 4-20% gradient nondenaturing Tris-Glycine gel at 4°C; Coomassie blue; self-association (trimer)
row,Protein,stoichiometry N
1,B1,3
2,B2,3
3,B3,3
